Data: IntAct's records for PubMed 29374162

B1: Interleukin-3 receptor subunit alpha (Homo sapiens), P26951-1 (parent)
chain: MVLLWLTLLLIALPCLLQTKEDPNPPITNLRMKAKAQQLTWDLNRNVTDIECVKDADYSMPAVNNSYCQFGAISLCEVTNYTVRVANPPFSTWILFPENSGKPWAGAENLTCWIHDVDFLSCSWAVGPGAPADVQYDLYLNVANRRQQYECLHYKTDAQGTRIGCRFDDISRLSSGSQSSHILVRGRSAAFGIPCTDKFVVFSQIEILTPPNMTAKCNKTHSFMHWKMRSHFNRKFRYELQIQKRMQPVITEQVRDRTSFQLLNPGTYTVQIRARERVYEFLSAWSTPQRFECDQEEGANTRAWRTSLLIALGTLLALVCVFVICRRYLVMQRLFPRIPHMKDPIGDSFQNDKLVVWEAGKAGLEECLVTEVQVVQKT
partner: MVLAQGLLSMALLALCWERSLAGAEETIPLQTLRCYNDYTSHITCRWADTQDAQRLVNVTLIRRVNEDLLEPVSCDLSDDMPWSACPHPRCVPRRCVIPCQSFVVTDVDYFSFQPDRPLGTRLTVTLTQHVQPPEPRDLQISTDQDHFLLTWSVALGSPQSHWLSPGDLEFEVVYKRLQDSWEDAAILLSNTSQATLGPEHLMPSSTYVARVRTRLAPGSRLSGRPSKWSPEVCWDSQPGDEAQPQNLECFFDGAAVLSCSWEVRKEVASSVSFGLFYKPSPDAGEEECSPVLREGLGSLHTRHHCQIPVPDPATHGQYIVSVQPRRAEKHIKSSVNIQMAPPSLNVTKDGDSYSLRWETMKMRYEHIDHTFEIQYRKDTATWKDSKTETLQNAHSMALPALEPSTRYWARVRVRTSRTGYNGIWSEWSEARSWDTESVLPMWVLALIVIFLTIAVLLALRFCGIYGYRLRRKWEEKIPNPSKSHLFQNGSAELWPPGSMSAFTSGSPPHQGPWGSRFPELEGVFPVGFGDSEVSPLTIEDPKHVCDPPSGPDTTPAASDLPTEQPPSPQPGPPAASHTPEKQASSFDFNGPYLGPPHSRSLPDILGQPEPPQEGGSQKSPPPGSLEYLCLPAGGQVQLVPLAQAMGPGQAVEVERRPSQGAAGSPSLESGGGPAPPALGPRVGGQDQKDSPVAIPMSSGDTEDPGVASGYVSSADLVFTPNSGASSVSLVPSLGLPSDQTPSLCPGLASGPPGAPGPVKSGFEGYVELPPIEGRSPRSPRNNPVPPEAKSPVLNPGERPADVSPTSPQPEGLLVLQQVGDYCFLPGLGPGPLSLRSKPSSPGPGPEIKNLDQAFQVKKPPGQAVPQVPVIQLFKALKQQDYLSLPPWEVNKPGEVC

Variants of: B1
Details: with il3rb_human CSF2RB

Row | effect of a mutation on the interaction | Variant
1 | with no effect | MVLLWLTLLLIALPCLLQTKEDPNPPITNLRMKAKAQQLTWDLNRNVTDIECVKDADYSMPAVNNSYCQFGAISLCEVTNYTVRVANPPFSTWILFPENSGKPWAGAENLTCWIHDVDFLSCSWAVGPGAPADVQYDLYLNVANRRQQYECLHYKTDAQGTRIGCRFDDISRLSSGSQSSHILVRGRSAAFGIPCTLKFVVFSQIEILTPPNMTAKCNKTHSFMHWKMRSHFNRKFRYELQIQKRMQPVITEQVRDRTSFQLLNPGTYTVQIRARERVYEFLSAWSTPQRFECDQEEGANTRAWRTSLLIALGTLLALVCVFVICRRYLVMQRLFPRIPHMKDPIGDSFQNDKLVVWEAGKAGLEECLVTEVQVVQKT [D197L]
2 | with no effect | MVLLWLTLLLIALPCLLQTKEDPNPPITNLRMKAKAQQLTWDLNRNVTDIECVKDADYSMPAVNNSYCQFGAISLAEVTNYTVRVANPPFSTWILFPENSGKPWAGAENLTCWIHDVDFLSCSWAVGPGAPADVQYDLYLNVANRRQQYECLHYKTDAQGTRIGCRFDDISRLSSGSQSSHILVRGRSAAFGIPATDKFVVFSQIEILTPPNMTAKCNKTHSFMHWKMRSHFNRKFRYELQIQKRMQPVITEQVRDRTSFQLLNPGTYTVQIRARERVYEFLSAWSTPQRFECDQEEGANTRAWRTSLLIALGTLLALVCVFVICRRYLVMQRLFPRIPHMKDPIGDSFQNDKLVVWEAGKAGLEECLVTEVQVVQKT [C76A;C195A]
